Results as given in the supplement of paper PMC12458215.
± gives the uncertainty stated by the source.

System: HEK293T
Assay: plasma membrane surface immunostaining intensity (anti-HA, deep receptor scanning) (arbitrary fluorescence units); higher = higher plasma membrane expression

Sequence	plasma membrane surface immunostaining intensity (GPCR class: A (Olfactory))	plasma membrane surface immunostaining intensity (GPCR class: A)	other results
MEPRNQTSASQFILLGLSEKPEQETLLFSLFFCMYLVMVVGNLLIILAISIDSHLHTPMYFFLANLSLVDFCLATNTIPKMLVSLQTGSKAISYPCCLIQMYFFHFFGIVDSVIIAMMAYDRFVAICHPLHYAKIMSLRLCRLLVGALWAFSCFISLTHILLMARLVFCGSHEVPHYFCDLTPILRLSCTDTSVNRIFILIVAGMVIATPFVCILASYARILVAIMKVPSAGGRKKAFSTCSSHLSVVALFYGTTIGVYLCPSSVLTTVKEKASAVMYTAVTPMLNPFIYSLRNRDLKGALRKLVNRKITSSS [OR1M1]	130 ± 31		
MEPSATPGAQMGVPPGSREPSPVPPDYEDEFLRYLWRDYLYPKQYEWVLIAAYVAVFVVALVGNTLVCLAVWRNHHMRTVTNYFIVNLSLADVLVTAICLPASLLVDITESWLFGHALCKVIPYLQAVSVSVAVLTLSFIALDRWYAICHPLLFKSTARRARGSILGIWAVSLAIMVPQAAVMECSSVLPELANRTRLFSVCDERWADDLYPKIYHSCFFIVTYLAPLGLMAMAYFQIFRKLWGRQIPGTTSALVRNWKRPSDQLGDLEQGLSGEPQPRARAFLAEVKQMRARRKTAKMLMVVLLVFALCYLPISVLNVLKRVFGMFRQASDREAVYACFTFSHWLVYANSAANPIIYNFLSGKFREQFKAAFSCCLPGLGPCGSLKAPSPRSSASHKSLSLQSRCSISKISEHVVLTSVTTVLP [HCRTR1]		1070 ± 130	
MERGNQTEVGNFLLLGFAEDSDMQLLLHGLFLSMYLVTIIGNLLIILTISSDSHLHTPMYFFLSNLSFADICFTSTTVPKMLVNIQTQSKMITFAGCLTQIFFFIAFGCLDNLLLTMTAYDRFVAICYPLHYTVIMNPRLCGLLVLGSWCISVMGSLLETLTILRLSFCTNMEIPHFFCDPSEVLKLACSDTFINNIVMYFVTIVLGVFPLCGILFSYSQIFSSVLRVSARGQHKAFSTCGSHLSVVSLFYGTGLGVYLSSAVTPPSRTSLAASVMYTMVTPMLNPFIYSLRNKDMKGSLGRLLLRATSLKEGTIAKLS [OR7C2]	131 ± 26		
MERINHTSSVSEFILLGLSSRPEDQKTLFVLFLIVYLVTITGNLLIILAIRFNPHLQTPMYFFLSFLSLTDICFTTSVVPKMLMNFLSEKKTISYAGCLTQMYFLYALGNSDSCLLAVMAFDRYVAVCDPFHYVTTMSHHHCVLLVAFSCSFPHLHSLLHTLLLNRLTFCDSNVIHHFLCDLSPVLKLSCSSIFVNEIVQMTEAPIVLVTRFLCIAFSYIRILTTVLKIPSTSGKRKAFSTCGFYLTVVTLFYGSIFCVYLQPPSTYAVKDHVATIVYTVLSSMLNPFIYSLRNKDLKQGLRKLMSKRS [OR1L8]	177 ± 72		
MERTNDSTSTEFFLVGLSAHPKLQTVFFVLILWMYLMILLGNGVLISVIIFDSHLHTPMYFFLCNLSFLDVCYTSSSVPLILASFLAVKKKVSFSGCMVQMFISFAMGATECMILGTMALDRYVAICYPLRYPVIMSKGAYVAMAAGSWVTGLVDSVVQTAFAMQLPFCANNVIKHFVCEILAILKLACADISINVISMTGSNLIVLVIPLLVISISYIFIVATILRIPSTEGKHKAFSTCSAHLTVVIIFYGTIFFMYAKPESKASVDSGNEDIIEALISLFYGVMTPMLNPLIYSLRNKDVKAAVKNILCRKNFSDGK [OR13C8]	129 ± 16		
MESENRTVIREFILLGLTQSQDIQLLVFVLVLIFYFIILPGNFLIIFTIKSDPGLTAPLYFFLGNLAFLDASYSFIVAPRMLVDFLSAKKIISYRGCITQLFFLHFLGGGEGLLLVVMAFDRYIAICRPLHYPTVMNPRTCYAMMLALWLGGFVHSIIQVVLILRLPFCGPNQLDNFFCDVPQVIKLACTDTFVVELLMVFNSGLMTLLCFLGLLASYAVILCRIRGSSSEAKNKAMSTCITHIIVIFFMFGPGIFIYTRPFRAFPADKVVSLFHTVIFPLLNPVIYTLRNQEVKASMKKVFNKHIA [OR4N2]	134 ± 28		
MESNQTWITEVILLGFQVDPALELFLFGFFLLFYSLTLMGNGIILGLIYLDSRLHTPMYVFLSHLAIVDMSYASSTVPKMLANLVMHKKVISFAPCILQTFLYLAFAITECLILVMMCYDRYVAICHPLQYTLIMNWRVCTVLASTCWIFSFLLALVHITLILRLPFCGPQKINHFFCQIMSVFKLACADTRLNQVVLFAGSAFILVGPLCLVLVSYLHILVAILRIQSGEGRRKAFSTCSSHLCVVGLFFGSAIVMYMAPKSSHSQERRKILSLFYSLFNPILNPLIYSLRNAEVKGALKRVLWKQRSM [OR2A12]	126 ± 28		
MESSFSFGVILAVLASLIIATNTLVAVAVLLLIHKNDGVSLCFTLNLAVADTLIGVAISGLLTDQLSSPSRPTQKTLCSLRMAFVTSSAAASVLTVMLITFDRYLAIKQPFRYLKIMSGFVAGACIAGLWLVSYLIGFLPLGIPMFQQTAYKGQCSFFAVFHPHFVLTLSCVGFFPAMLLFVFFYCDMLKIASMHSQQIRKMEHAGAMAGGYRSPRTPSDFKALRTVSVLIGSFALSWTPFLITGIVQVACQECHLYLVLERYLWLLGVGNSLLNPLIYAYWQKEVRLQLYHMALGVKKVLTSFLLFLSARNCGPERPRESSCHIVTISSSEFDG [GPR119]		702 ± 99	
MESSGNPESTTFFYYDLQSQPCENQAWVFATLATTVLYCLVFLLSLVGNSLVLWVLVKYESLESLTNIFILNLCLSDLVFACLLPVWISPYHWGWVLGDFLCKLLNMIFSISLYSSIFFLTIMTIHRYLSVVSPLSTLRVPTLRCRVLVTMAVWVASILSSILDTIFHKVLSSGCDYSELTWYLTSVYQHNLFFLLSLGIILFCYVEILRTLFRSRSKRRHRTVKLIFAIVVAYFLSWGPYNFTLFLQTLFRTQIIRSCEAKQQLEYALLICRNLAFSHCCFNPVLYVFVGVKFRTHLKHVLRQFWFCRLQAPSPASIPHSPGAFAYEGASFY [XCR1]		190 ± 16	
METNFSIPLNETEEVLPEPAGHTVLWIFSLLVHGVTFVFGVLGNGLVIWVAGFRMTRTVNTICYLNLALADFSFSAILPFRMVSVAMREKWPFGSFLCKLVHVMIDINLFVSVYLITIIALDRCICVLHPAWAQNHRTMSLAKRVMTGLWIFTIVLTLPNFIFWTTISTTNGDTYCIFNFAFWGDTAVERLNVFITMAKVFLILHFIIGFSVPMSIITVCYGIIAAKIHRNHMIKSSRPLRVFAAVVASFFICWFPYELIGILMAVWLKEMLLNGKYKIILVLINPTSSLAFFNSCLNPILYVFMGRNFQERLIRSLPTSLERALTEVPDSAQTSNTDTTSASPPEETELQAM [FPR3]		6430 ± 58	
METNFSTPLNEYEEVSYESAGYTVLRILPLVVLGVTFVLGVLGNGLVIWVAGFRMTRTVTTICYLNLALADFSFTATLPFLIVSMAMGEKWPFGWFLCKLIHIVVDINLFGSVFLIGFIALDRCICVLHPVWAQNHRTVSLAMKVIVGPWILALVLTLPVFLFLTTVTIPNGDTYCTFNFASWGGTPEERLKVAITMLTARGIIRFVIGFSLPMSIVAICYGLIAAKIHKKGMIKSSRPLRVLTAVVASFFICWFPFQLVALLGTVWLKEMLFYGKYKIIDILVNPTSSLAFFNSCLNPMLYVFVGQDFRERLIHSLPTSLERALSEDSAPTNDTAANSASPPAETELQAM [FPR2]		6515 ± 60	
METNSSLPTNISGGTPAVSAGYLFLDIITYLVFAVTFVLGVLGNGLVIWVAGFRMTHTVTTISYLNLAVADFCFTSTLPFFMVRKAMGGHWPFGWFLCKFVFTIVDINLFGSVFLIALIALDRCVCVLHPVWTQNHRTVSLAKKVIIGPWVMALLLTLPVIIRVTTVPGKTGTVACTFNFSPWTNDPKERINVAVAMLTVRGIIRFIIGFSAPMSIVAVSYGLIATKIHKQGLIKSSRPLRVLSFVAAAFFLCWSPYQVVALIATVRIRELLQGMYKEIGIAVDVTSALAFFNSCLNPMLYVFMGQDFRERLIHALPASLERALTEDSTQTSDTATNSTLPSAEVELQAK [FPR1]		6448 ± 46	
METPNTTEDYDTTTEFDYGDATPCQKVNERAFGAQLLPPLYSLVFVIGLVGNILVVLVLVQYKRLKNMTSIYLLNLAISDLLFLFTLPFWIDYKLKDDWVFGDAMCKILSGFYYTGLYSEIFFIILLTIDRYLAIVHAVFALRARTVTFGVITSIIIWALAILASMPGLYFSKTQWEFTHHTCSLHFPHESLREWKLFQALKLNLFGLVLPLLVMIICYTGIIKILLRRPNEKKSKAVRLIFVIMIIFFLFWTPYNLTILISVFQDFLFTHECEQSRHLDLAVQVTEVIAYTHCCVNPVIYAFVGERFRKYLRQLFHRRVAVHLVKWLPFLSVDRLERVSSTSPSTGEHELSAGF [CCR1]		5560 ± 180	
METQNLTVVTEFILLGLTQSQDAQLLVFVLVLIFYLIILPGNFLIIFTIKSDPGLTAPLYFFLGNLALLDASYSFIVVPRMLVDFLSEKKVISYRSCITQLFFLHFLGAGEMFLLVVMAFDRYIAICRPLHYSTIMNPRACYALSLVLWLGGFIHSIVQVALILHLPFCGPNQLDNFFCDVPQVIKLACTNTFVVELLMVSNSGLLSLLCFLGLLASYAVILCRIREHSSEGKSKAISTCTTHIIIIFLMFGPAIFIYTCPFQAFPADKVVSLFHTVIFPLMNPVIYTLRNQEVKASMRKLLSQHMFC [OR4N5]	216 ± 66		
METTMGFMDDNATNTSTSFLSVLNPHGAHATSFPFNFSYSDYDMPLDEDEDVTNSRTFFAAKIVIGMALVGIMLVCGIGNFIFIAALVRYKKLRNLTNLLIANLAISDFLVAIVCCPFEMDYYVVRQLSWEHGHVLCTSVNYLRTVSLYVSTNALLAIAIDRYLAIVHPLRPRMKCQTATGLIALVWTVSILIAIPSAYFTTETVLVIVKSQEKIFCGQIWPVDQQLYYKSYFLFIFGIEFVGPVVTMTLCYARISRELWFKAVPGFQTEQIRKRLRCRRKTVLVLMCILTAYVLCWAPFYGFTIVRDFFPTVFVKEKHYLTAFYIVECIAMSNSMINTLCFVTVKNDTVKYFKKIMLLHWKASYNGGKSSADLDLKTIGMPATEEVDCIRLK [PROKR1]		2260 ± 380	
MEWGYLLEVTSLLAALALLQRSSGAAAASAKELACQEITVPLCKGIGYNYTYMPNQFNHDTQDEAGLEVHQFWPLVEIQCSPDLKFFLCSMYTPICLEDYKKPLPPCRSVCERAKAGCAPLMRQYGFAWPDRMRCDRLPEQGNPDTLCMDYNRTDLTTAAPSPPRRLPPPPPGEQPPSGSGHGRPPGARPPHRGGGRGGGGGDAAAPPARGGGGGGKARPPGGGAAPCEPGCQCRAPMVSVSSERHPLYNRVKTGQIANCALPCHNPFFSQDERAFTVFWIGLWSVLCFVSTFATVSTFLIDMERFKYPERPIIFLSACYLFVSVGYLVRLVAGHEKVACSGGAPGAGGAGGAGGAAAGAGAAGAGAGGPGGRGEYEELGAVEQHVRYETTGPALCTVVFLLVYFFGMASSIWWVILSLTWFLAAGMKWGNEAIAGYSQYFHLAAWLVPSVKSIAVLALSSVDGDPVAGICYVGNQSLDNLRGFVLAPLVIYLFIGTMFLLAGFVSLFRIRSVIKQQDGPTKTHKLEKLMIRLGLFTVLYTVPAAVVVACLFYEQHNRPRWEATHNCPCLRDLQPDQARRPDYAVFMLKYFMCLVVGITSGVWVWSGKTLESWRSLCTRCCWASKGAAVGGGAGATAAGGGGGPGGGGGGGPGGGGGPGGGGGSLYSDVSTGLTWRSGTASSVSYPKQMPLSQV [FZD8]			plasma membrane surface immunostaining intensity (GPCR class: F): 225 ± 23
MFGLFGLWRTFDSVVFYLTLIVGLGGPVGNGLVLWNLGFRIKKGPFSIYLLHLAAADFLFLSCRVGFSVAQAALGAQDTLYFVLTFLWFAVGLWLLAAFSVERCLSDLFPACYQGCRPRHASAVLCALVWTPTLPAVPLPANACGLLRNSACPLVCPRYHVASVTWFLVLARVAWTAGVVLFVWVTCCSTRPRPRLYGIVLGALLLLFFCGLPSVFYWSLQPLLNFLLPVFSPLATLLACVNSSSKPLIYSGLGRQPGKREPLRSVLRRALGEGAELGARGQSLPMGLL [MRGPRG]		115 ± 15	
